The record followed here is US20250145701A1.

For experiment [1], the target named is monkey PD-1 (ACRO, His tag) (monkey) (UniProt B0LAJ3). In words: ELISA, monkey PD-1-His coated at 1 ug/mL, anti-human IgG Fc detection. (An ELISA detects its analyte on a solid surface through an enzyme-linked reagent.)
Experiment [2] has the same target. The experiment is described as follows: ELISA, monkey PD-1-His coated at 1 ug/mL, anti-human IgG Fc detection, OD450.
The target in experiment [3] is human VEGF (ACRO, His tag) (human) (UniProt P15692). In words: ELISA, human VEGF-His coated at 50 ng/ml, anti-human IgG Fc detection, OD450; negative control.
Experiment [4] concerns the target biotin-labeled human VEGF (ACRO, biotinylated protein) (human) (UniProt P15692). In words: bridging ELISA: human PD-1-His coated at 1 ug/mL, antibody, then biotinylated human VEGF at 50 ng/ml and streptavidin-HRP, OD450; single-target control.

Sequence of monkey PD-1 (ACRO, His tag) (monkey) (B0LAJ3 entry or part of it limits assumed, form in doubt): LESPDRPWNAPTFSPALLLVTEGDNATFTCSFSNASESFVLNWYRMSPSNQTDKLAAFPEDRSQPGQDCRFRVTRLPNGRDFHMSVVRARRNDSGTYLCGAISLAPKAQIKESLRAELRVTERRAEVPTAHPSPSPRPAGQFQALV
Sequence of human VEGF (ACRO, His tag) (human) (P15692 other isoform, or with tags, fused parts or gaps limits assumed): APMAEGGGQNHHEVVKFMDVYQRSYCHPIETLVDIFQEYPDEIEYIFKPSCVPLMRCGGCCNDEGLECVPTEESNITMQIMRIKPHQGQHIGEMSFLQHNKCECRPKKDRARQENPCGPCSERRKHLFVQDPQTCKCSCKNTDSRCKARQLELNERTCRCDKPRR
Sequence of biotin-labeled human VEGF (ACRO, biotinylated protein) (human) (P15692 other isoform, or with tags, fused parts or gaps limits assumed): as above

Take Keytruda (pembrolizumab) (antibody): the EC50 (commonly the midpoint of the concentration-response curve) in experiment [1] was found to be 187 pM. For the same substance, the TOP OD in experiment [2] was 3.08 OD.

For Opdivo (nivolumab) (antibody), the TOP OD in experiment [3] came to 0.048 OD; in experiment [2], 2.99 OD; in experiment [4], 0.048 OD. This substance had an EC50 in experiment [1] of 153 pM.
